The numbers were not newly measured in paper PMC3683042, “Solution Structure and Peptide Binding of the PTB Domain from the AIDA1 Postsynaptic Signaling Scaffolding Protein” (PLoS ONE, 2013), which cites them from elsewhere.

The target in data set [1] is APP 32 aa peptide (Homo sapiens) (UniProt P05067).
The target in data set [2] is APP 11 aa peptide (Homo sapiens) (UniProt P05067).
Data set [3] addresses APP 14 aa peptide (Homo sapiens) (UniProt P05067).

Fe65 PTB2, sequence (O00213 542-699): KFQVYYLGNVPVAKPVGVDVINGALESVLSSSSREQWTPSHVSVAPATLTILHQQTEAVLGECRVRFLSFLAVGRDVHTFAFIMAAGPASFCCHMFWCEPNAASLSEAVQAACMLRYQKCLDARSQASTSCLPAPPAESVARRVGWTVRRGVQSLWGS
X11 PTB, sequence (Q02410 457-643): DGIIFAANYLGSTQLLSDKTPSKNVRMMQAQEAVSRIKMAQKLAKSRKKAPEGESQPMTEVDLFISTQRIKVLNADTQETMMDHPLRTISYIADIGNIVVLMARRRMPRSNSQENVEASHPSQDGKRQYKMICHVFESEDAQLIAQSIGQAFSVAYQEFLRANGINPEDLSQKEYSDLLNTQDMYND
APP 11 aa peptide (Homo sapiens), sequence (P05067 whole entry, looked up, tested part not stated): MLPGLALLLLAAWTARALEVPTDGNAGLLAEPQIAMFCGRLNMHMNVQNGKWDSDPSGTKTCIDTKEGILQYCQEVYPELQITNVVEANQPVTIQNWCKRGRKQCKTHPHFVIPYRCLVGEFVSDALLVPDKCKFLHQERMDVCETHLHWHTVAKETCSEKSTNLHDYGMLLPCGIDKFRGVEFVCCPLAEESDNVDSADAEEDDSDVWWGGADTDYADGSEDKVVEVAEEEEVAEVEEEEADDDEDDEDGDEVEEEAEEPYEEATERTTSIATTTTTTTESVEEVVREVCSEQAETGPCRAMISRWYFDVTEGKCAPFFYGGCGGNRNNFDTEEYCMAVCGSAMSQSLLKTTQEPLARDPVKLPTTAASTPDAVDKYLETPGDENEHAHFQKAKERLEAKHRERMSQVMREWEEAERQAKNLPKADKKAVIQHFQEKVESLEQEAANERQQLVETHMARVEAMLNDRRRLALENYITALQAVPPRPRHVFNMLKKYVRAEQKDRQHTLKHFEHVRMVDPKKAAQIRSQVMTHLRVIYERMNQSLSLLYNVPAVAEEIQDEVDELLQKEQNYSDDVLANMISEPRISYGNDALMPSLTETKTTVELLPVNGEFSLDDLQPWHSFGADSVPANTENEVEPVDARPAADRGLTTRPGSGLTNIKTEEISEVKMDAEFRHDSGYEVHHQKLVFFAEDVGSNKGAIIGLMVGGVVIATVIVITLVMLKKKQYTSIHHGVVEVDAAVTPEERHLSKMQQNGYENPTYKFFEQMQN
APP 32 aa peptide (Homo sapiens), sequence (P05067 739-770): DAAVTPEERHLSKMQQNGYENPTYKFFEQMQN

Fe65 PTB2 (from UniProt O00213): the Kd in data set [1] is 200 nM; in data set [2], 100 µM.
For X11 PTB (from UniProt Q02410), the Kd in data set [3] is 300 nM.
